Laboratory results from patent publication US20200262877A1, “ION CHANNEL-BINDING PEPTIDES AND METHODS OF USE THEREOF” (priority 2017, published 2020).

Experiments:
5HT3a = target: T1, 5HT3a (Homo sapiens, UniProt P46098); test: Ion channel panel (IonWorks Barracuda): 5HT3a; type: cell-based
T1 construct: host or cells: HEK293 or CHO
T1 sequence (P46098 whole entry, looked up): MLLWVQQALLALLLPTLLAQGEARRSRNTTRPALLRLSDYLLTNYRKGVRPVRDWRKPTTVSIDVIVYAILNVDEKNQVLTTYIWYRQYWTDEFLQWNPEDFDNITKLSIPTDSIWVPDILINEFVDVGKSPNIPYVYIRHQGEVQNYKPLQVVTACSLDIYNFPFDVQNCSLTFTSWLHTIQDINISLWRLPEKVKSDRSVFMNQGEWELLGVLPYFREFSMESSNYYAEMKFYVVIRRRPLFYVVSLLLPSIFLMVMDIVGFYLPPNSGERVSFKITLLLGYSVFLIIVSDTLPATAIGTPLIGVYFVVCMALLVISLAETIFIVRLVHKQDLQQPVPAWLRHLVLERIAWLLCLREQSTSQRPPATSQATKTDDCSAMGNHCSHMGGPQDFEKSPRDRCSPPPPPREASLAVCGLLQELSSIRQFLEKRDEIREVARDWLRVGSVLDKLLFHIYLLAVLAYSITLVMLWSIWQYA
Method in brief: (§1)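 Peptides were tested in duplicate at final 20 μM and 200 nM, with concentration set by amino acid analysis, in HEPES-buffered saline. They were applied for at least 5 min to HEK293 or CHO cells transfected with each channel. Currents were expressed as % inhibition, 1-(Ipeptide/Icontrol)×100, or % activation, Ipeptide/Icontrol×100, against a channel-matched reference compound.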

α3β4 = target: T2, α3β4 (Homo sapiens, UniProt P30926+P32297); test: Ion channel panel (IonWorks Barracuda): α3β4; type: cell-based; details: 100% = no change, <100% = inhibition
T2 construct: host or cells: HEK293 or CHO
Method in brief: as §1

α4β2 = target: T3, α4β2 (Homo sapiens, UniProt P17787+P43681); test: Ion channel panel (IonWorks Barracuda): α4β2; type: cell-based; details: 100% = no change, <100% = inhibition
T3 construct: host or cells: HEK293 or CHO
Method in brief: as §1

Cav2.1 = target: T4, Cav2.1 (Homo sapiens, UniProt O00555); test: cell-based; details: 100% = no change, <100% = inhibition
T4 construct: host or cells: HEK293 or CHO
Method in brief: as §1

Cav2.2 = target: T5, Cav2.2 (Homo sapiens, UniProt Q00975); test: cell-based; details: 100% = no change, <100% = inhibition
T5 construct: host or cells: HEK293 or CHO
Method in brief: as §1

Kv2.1 = target: T6, Kv2.1 (Homo sapiens, UniProt Q14721); test: cell-based; details: 100% = no change, <100% = inhibition
T6 construct: host or cells: HEK293 or CHO
Method in brief: as §1

GABA = test: Ion channel panel (IonWorks Barracuda): GABA; type: cell-based; details: 100% = no change, <100% = inhibition
Method in brief: as §1

Nav1.5 = Nav1.5 (Homo sapiens, UniProt Q14524); test: in vitro; details: 100% = no change; for Activity of Nav1.5 with peptide, expressed as a percentage of the reference compound: peptide at 0.2 μM; for Activity of Nav1.5 with peptide (percentage of the reference compound): peptide at 20 μM
Method in brief: as §1

hERG = hERG (Homo sapiens, UniProt Q12809); test: in vitro; details: 100% = no change, <100% = inhibition
Method in brief: as §1

Kir2.1 = target: T7, Kir2.1 (Homo sapiens, UniProt P63252); test: Ion channel panel (IonWorks Barracuda): Kir2.1; type: cell-based; details: 100% = no change, <100% = inhibition
T7 construct: host or cells: HEK293 or CHO
Method in brief: as §1

Kv1.1 = target: T8, Kv1.1 (Homo sapiens, UniProt Q09470); test: cell-based; type: cell-based; details: 100% = no change, <100% = inhibition
T8 construct: host or cells: HEK293 or CHO
Method in brief: as §1

Kv1.2 = target: T9, Kv1.2 (Homo sapiens, UniProt P16389); test: cell-based; type: cell-based; details: 100% = no change, <100% = inhibition
T9 construct: host or cells: HEK293 or CHO
Method in brief: as §1

Kv1.3 = target: T10, Kv1.3 (Homo sapiens, UniProt P22001); test: cell-based; type: cell-based; details: 100% = no change, <100% = inhibition
T10 construct: host or cells: HEK293 or CHO
Method in brief: as §1

Nav1.7 = target: T11, Nav1.7 (Homo sapiens, UniProt Q15858); test: cell-based; type: cell-based; details: 100% = no change; for Activity of Nav1.7 with peptide, expressed as a percentage of the reference compound: peptide at 0.2 μM; for Activity of Nav1.7 with peptide (percentage of the reference compound): peptide at 20 μM
T11 construct: host or cells: HEK293 or CHO

NR2A = target: T12, NR2A (Homo sapiens, UniProt Q12879); test: Ion channel panel (IonWorks Barracuda): NR2A; type: cell-based; details: 100% = no change, <100% = inhibition
T12 construct: host or cells: HEK293 or CHO
Method in brief: as §1

NR2B = target: T13, NR2B (Homo sapiens, UniProt Q13224); test: Ion channel panel (IonWorks Barracuda): NR2B; type: cell-based; details: 100% = no change, <100% = inhibition
T13 construct: host or cells: HEK293 or CHO
Method in brief: as §1

TRPA1 = target: T14, TRPA1 (Homo sapiens, UniProt O75762); test: Ion channel panel (IonWorks Barracuda): TRPA1; type: cell-based; details: 100% = no change, <100% = inhibition
T14 construct: host or cells: HEK293 or CHO
Method in brief: as §1

TRPV1 = target: T15, TRPV1 (Homo sapiens, UniProt Q8NER1); test: Ion channel panel (IonWorks Barracuda): TRPV1; type: cell-based; details: 100% = no change, <100% = inhibition
T15 construct: host or cells: HEK293 or CHO
Method in brief: as §1

[1] = first of two Nav1.5 columns (probably TP1)
[2] = second of two Nav1.5 columns (probably TP2)
[3] = first of two Nav1.7 columns (probably TP1)
[4] = second of two Nav1.7 columns (probably TP2)

Nav1.5, sequence (Q14524 whole entry): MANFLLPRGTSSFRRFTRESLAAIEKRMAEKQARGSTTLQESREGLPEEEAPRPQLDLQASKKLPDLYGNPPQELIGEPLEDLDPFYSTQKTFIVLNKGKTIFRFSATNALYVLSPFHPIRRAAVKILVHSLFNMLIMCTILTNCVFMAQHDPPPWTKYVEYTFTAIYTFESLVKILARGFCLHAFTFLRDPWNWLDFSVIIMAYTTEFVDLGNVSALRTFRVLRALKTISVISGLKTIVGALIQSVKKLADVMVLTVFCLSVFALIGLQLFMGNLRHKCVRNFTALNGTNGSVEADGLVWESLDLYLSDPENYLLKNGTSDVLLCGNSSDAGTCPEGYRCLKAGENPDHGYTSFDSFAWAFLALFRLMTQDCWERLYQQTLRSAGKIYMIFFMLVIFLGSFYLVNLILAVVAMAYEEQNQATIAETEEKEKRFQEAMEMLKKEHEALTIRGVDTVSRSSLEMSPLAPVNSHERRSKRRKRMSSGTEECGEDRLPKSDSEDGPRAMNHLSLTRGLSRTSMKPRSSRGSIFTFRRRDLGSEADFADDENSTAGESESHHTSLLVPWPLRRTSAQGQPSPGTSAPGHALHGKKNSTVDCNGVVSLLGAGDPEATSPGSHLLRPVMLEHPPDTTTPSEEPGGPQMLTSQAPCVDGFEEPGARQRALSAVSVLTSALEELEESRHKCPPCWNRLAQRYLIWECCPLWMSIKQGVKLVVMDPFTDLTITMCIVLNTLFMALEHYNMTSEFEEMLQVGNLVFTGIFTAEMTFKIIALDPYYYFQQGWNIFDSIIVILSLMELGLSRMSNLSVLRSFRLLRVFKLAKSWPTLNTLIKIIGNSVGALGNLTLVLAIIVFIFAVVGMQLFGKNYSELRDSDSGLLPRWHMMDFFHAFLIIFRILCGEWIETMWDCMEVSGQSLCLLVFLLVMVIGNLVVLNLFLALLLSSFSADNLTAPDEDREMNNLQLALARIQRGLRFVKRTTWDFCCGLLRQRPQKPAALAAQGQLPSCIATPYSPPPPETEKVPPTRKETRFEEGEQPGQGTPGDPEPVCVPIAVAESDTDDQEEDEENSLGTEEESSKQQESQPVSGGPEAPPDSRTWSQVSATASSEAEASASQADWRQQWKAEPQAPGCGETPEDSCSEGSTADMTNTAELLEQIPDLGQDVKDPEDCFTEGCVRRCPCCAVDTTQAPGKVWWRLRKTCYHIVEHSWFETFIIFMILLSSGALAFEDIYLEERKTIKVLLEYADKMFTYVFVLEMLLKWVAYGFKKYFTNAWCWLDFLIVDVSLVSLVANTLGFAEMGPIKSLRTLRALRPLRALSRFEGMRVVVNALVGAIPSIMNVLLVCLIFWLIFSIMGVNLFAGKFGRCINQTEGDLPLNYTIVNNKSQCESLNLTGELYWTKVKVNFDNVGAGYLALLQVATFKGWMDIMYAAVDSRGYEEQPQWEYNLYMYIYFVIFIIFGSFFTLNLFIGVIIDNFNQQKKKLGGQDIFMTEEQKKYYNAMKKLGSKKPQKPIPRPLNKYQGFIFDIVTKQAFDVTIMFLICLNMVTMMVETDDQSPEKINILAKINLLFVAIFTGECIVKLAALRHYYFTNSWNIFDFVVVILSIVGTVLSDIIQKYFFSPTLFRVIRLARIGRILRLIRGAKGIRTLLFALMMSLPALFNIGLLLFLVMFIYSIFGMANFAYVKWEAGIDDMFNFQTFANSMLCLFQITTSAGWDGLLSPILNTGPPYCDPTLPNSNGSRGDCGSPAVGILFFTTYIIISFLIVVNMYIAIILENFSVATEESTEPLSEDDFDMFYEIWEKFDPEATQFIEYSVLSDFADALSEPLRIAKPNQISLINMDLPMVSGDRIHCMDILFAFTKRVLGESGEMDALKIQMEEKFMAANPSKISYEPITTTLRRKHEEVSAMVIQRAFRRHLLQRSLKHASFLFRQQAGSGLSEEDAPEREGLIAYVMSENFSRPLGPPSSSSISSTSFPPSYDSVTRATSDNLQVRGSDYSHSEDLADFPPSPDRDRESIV
T11 sequence (Q15858 whole entry): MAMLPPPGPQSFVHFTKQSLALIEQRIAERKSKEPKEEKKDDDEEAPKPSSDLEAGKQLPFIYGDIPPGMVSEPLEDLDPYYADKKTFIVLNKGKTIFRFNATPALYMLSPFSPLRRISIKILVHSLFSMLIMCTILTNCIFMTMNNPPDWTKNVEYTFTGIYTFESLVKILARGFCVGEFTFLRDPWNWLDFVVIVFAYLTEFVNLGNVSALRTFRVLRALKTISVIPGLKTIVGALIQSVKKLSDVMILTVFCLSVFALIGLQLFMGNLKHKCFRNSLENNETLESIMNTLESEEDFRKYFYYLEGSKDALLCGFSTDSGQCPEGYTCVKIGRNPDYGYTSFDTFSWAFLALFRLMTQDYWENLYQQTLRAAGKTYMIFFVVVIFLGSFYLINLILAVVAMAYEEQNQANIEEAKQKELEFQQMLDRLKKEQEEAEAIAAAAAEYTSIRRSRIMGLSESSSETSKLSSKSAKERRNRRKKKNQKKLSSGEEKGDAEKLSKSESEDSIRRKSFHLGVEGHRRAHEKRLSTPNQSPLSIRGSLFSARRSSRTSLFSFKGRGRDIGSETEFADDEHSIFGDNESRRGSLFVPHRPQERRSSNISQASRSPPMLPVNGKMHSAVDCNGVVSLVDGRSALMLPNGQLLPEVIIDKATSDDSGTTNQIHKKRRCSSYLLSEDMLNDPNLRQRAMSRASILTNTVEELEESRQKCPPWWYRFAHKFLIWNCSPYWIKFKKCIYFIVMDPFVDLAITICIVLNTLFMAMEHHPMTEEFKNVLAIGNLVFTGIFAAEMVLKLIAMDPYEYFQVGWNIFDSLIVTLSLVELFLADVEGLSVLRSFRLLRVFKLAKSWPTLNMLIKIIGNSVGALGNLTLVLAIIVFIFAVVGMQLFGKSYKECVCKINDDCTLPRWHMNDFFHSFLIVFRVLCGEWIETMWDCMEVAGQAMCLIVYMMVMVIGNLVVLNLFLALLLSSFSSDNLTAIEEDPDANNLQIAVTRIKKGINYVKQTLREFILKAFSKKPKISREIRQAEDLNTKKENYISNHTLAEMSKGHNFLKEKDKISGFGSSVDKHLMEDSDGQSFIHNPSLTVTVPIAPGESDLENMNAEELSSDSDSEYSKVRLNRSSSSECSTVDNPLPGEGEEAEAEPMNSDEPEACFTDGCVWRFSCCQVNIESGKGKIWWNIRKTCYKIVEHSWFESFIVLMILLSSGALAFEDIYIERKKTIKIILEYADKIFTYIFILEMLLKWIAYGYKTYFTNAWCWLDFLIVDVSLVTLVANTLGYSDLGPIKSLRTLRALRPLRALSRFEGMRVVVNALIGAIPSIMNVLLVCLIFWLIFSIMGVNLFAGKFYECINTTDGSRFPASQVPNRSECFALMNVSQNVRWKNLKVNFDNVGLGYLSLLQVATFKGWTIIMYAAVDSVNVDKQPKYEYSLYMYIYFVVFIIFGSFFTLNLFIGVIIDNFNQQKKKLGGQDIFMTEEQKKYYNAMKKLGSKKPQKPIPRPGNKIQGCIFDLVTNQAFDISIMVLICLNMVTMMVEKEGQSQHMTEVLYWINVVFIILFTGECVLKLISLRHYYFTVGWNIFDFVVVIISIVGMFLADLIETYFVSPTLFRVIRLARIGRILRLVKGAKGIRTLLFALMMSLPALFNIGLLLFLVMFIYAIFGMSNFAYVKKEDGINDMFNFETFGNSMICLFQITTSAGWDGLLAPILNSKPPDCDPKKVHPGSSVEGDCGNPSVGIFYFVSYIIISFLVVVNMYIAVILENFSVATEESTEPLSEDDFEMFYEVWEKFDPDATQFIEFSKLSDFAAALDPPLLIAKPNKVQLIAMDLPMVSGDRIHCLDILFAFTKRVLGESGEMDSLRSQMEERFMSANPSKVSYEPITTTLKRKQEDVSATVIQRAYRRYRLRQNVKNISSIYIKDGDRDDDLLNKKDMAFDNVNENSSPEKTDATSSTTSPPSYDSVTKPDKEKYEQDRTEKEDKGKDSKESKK
T15 sequence (Q8NER1 whole entry): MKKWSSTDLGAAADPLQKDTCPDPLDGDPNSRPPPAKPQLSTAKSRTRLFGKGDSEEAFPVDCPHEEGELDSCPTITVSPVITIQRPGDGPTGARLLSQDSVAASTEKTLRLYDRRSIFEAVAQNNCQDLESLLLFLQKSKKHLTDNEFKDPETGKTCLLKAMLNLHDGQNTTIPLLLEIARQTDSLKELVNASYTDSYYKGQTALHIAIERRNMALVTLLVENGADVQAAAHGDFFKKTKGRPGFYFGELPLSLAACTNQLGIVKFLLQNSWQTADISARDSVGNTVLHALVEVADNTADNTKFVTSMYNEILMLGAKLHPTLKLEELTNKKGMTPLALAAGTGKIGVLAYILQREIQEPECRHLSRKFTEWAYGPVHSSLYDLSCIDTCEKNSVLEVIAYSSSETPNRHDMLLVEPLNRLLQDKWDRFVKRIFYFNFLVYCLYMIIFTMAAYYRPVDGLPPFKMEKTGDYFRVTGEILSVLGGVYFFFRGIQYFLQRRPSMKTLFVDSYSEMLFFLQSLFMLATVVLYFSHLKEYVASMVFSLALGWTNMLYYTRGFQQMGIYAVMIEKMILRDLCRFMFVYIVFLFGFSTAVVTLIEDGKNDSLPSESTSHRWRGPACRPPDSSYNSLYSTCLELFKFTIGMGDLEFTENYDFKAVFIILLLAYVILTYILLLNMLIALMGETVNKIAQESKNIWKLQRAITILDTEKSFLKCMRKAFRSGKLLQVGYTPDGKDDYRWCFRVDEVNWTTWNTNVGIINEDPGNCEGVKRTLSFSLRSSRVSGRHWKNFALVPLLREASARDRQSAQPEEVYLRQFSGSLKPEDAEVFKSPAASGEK

Substance: 15 (GSAVCNLKRCQLSCRSLGLLGKCIGDKCECVKHG) [compound 15]
- Activity of 5HT3a with peptide (percentage of the reference compound) (5HT3a): 74%
- Activity of 5HT3a with peptide, expressed as a percentage of the reference compound (5HT3a): 86%
- Activity of a3b4 with peptide, expressed as a percentage of the reference compound (α3β4; peptide at 0.2 μM): 91%
- Activity of a3b4 with peptide (percentage of the reference compound) (α3β4; peptide at 20 μM): 86%
- Activity of a4b2 with peptide, expressed as a percentage of the reference compound (α4β2; peptide at 0.2 μM): 71%
- Activity of a4b2 with peptide (percentage of the reference compound) (α4β2; peptide at 20 μM): 95%
- Activity of Cav2.1 with peptide, expressed as a percentage of the reference compound (Cav2.1; peptide at 0.2 μM): 106%
- Activity of Cav2.1 with peptide (percentage of the reference compound) (Cav2.1; peptide at 20 μM): 86%
- Activity of Cav2.2 with peptide, expressed as a percentage of the reference compound (Cav2.2; peptide at 0.2 μM): 105%
- Activity of Cav2.2 with peptide (percentage of the reference compound) (Cav2.2; peptide at 20 μM): 106%
- Activity of Kv2.1 with peptide, expressed as a percentage of the reference compound (Kv2.1; peptide at 0.2 μM): 91%
- Activity of Kv2.1 with peptide (percentage of the reference compound) (Kv2.1; peptide at 20 μM): 88%
- Activity of GABA with peptide, expressed as a percentage of the reference compound (GABA; peptide at 0.2 μM): 122%
- Activity of GABA with peptide (percentage of the reference compound) (GABA; peptide at 20 μM): 97%
- Activity of Nav1.5 with peptide, expressed as a percentage of the reference compound (Nav1.5; [1]): 90%
- Activity of Nav1.5 with peptide, expressed as a percentage of the reference compound (Nav1.5; [2]): 91%
- Activity of Nav1.5 with peptide (percentage of the reference compound) (Nav1.5; [1]): 78%
- Activity of Nav1.5 with peptide (percentage of the reference compound) (Nav1.5; [2]): 79%
- Activity of hERG with peptide, expressed as a percentage of the reference compound (hERG; peptide at 0.2 μM): 79%
- Activity of hERG with peptide (percentage of the reference compound) (hERG; peptide at 20 μM): 67%
- Activity of Kir2.1 with peptide, expressed as a percentage of the reference compound (Kir2.1; peptide at 0.2 μM): 107%
- Activity of Kir2.1 with peptide (percentage of the reference compound) (Kir2.1; peptide at 20 μM): 88%
- Activity of Kv1.1 with peptide, expressed as a percentage of the reference compound (Kv1.1; peptide at 0.2 μM): 69%
- Activity of Kv1.1 with peptide (percentage of the reference compound) (Kv1.1; peptide at 20 μM): 72%
- Activity of Kv1.2 with peptide, expressed as a percentage of the reference compound (Kv1.2; peptide at 0.2 μM): 77%
- Activity of Kv1.2 with peptide (percentage of the reference compound) (Kv1.2; peptide at 20 μM): 76%
- Activity of Kv1.3 with peptide, expressed as a percentage of the reference compound (Kv1.3; peptide at 0.2 μM): 86%
- Activity of Kv1.3 with peptide (percentage of the reference compound) (Kv1.3; peptide at 20 μM): 90%
- Activity of Nav1.7 with peptide, expressed as a percentage of the reference compound (Nav1.7; [3]): 91%
- Activity of Nav1.7 with peptide, expressed as a percentage of the reference compound (Nav1.7; [4]): 97%
- Activity of Nav1.7 with peptide (percentage of the reference compound) (Nav1.7; [3]): 75%
- Activity of Nav1.7 with peptide (percentage of the reference compound) (Nav1.7; [4]): 58%
- Activity of NR2A with peptide, expressed as a percentage of the reference compound (NR2A; peptide at 0.2 μM): 97%
- Activity of NR2A with peptide (percentage of the reference compound) (NR2A; peptide at 20 μM): 76%
- Activity of NR2B with peptide, expressed as a percentage of the reference compound (NR2B; peptide at 0.2 μM): 103%
- Activity of NR2B with peptide (percentage of the reference compound) (NR2B; peptide at 20 μM): 88%
- Activity of TRPA1 with peptide, expressed as a percentage of the reference compound (TRPA1; peptide at 0.2 μM): 114%
- Activity of TRPA1 with peptide (percentage of the reference compound) (TRPA1; peptide at 20 μM): 76%
- Activity of TRPV1 with peptide, expressed as a percentage of the reference compound (TRPV1; peptide at 0.2 μM): 124%
- Activity of TRPV1 with peptide (percentage of the reference compound) (TRPV1; peptide at 20 μM): 99%
